Reference: publication PMC4434323

Tests used:
[1] = molecular target: T1, atf-2 (K08F8.2) (Caenorhabditis elegans) (UniProt Q21361)
T1 sequence: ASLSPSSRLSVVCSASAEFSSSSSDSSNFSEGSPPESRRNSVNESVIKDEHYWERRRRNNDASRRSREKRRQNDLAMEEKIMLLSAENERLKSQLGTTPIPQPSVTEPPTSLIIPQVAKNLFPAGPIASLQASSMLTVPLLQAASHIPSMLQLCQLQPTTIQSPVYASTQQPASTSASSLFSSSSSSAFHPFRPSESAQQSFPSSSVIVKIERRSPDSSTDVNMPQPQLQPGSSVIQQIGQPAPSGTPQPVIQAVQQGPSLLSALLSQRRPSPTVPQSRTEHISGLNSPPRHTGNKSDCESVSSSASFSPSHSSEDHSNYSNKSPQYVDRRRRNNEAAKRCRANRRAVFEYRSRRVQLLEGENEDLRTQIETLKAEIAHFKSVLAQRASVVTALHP

[2] = molecular target: T2, F17A9.3 (F17A9.3) (Caenorhabditis elegans) (UniProt O16213)
T2 sequence: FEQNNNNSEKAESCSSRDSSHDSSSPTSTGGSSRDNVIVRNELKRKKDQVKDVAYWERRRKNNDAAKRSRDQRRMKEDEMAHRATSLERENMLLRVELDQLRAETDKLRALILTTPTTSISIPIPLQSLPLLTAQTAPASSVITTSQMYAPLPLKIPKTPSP

[3] = molecular target: T3, Y51H4A.4 (Y51H4A.4) (Caenorhabditis elegans) (UniProt Q9NAE4)
T3 sequence: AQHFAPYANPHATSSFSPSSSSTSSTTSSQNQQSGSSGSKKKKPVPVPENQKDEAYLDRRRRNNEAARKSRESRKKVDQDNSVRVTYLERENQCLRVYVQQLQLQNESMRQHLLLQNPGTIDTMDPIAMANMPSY

[4] = molecular target: T4, T07C12.11 (T07C12.11) (Caenorhabditis elegans) (UniProt G5EGG9)
T4 sequence: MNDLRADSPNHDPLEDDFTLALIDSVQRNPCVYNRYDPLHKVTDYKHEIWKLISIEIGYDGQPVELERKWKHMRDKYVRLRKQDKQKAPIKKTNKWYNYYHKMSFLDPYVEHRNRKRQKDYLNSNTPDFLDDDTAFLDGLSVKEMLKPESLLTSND

[5] = molecular target: T5, ref-2 (C47C12.3) (Caenorhabditis elegans) (UniProt Q7JNM3)
T5 sequence: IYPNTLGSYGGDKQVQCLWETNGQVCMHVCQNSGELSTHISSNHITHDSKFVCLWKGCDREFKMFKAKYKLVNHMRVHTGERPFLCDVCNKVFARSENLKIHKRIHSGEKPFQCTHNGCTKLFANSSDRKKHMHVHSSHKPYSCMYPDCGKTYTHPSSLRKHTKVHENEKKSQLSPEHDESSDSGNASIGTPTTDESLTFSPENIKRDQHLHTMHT

Sequence	binding signal (PBM E-score (-0.5 to 0.5)) [1]	binding signal (PBM E-score (-0.5 to 0.5)) [2]	binding signal (PBM E-score (-0.5 to 0.5)) [3]	binding signal (PBM E-score (-0.5 to 0.5)) [4]	binding signal (PBM E-score (-0.5 to 0.5)) [5]
TTACGTAA (double strand) [8-mer TTACGTAA]	0.478	0.498	0.498	0.496	–
CAGCGGGA (double strand) [8-mer CAGCGGGA]	–	–	–	–	0.483
